Sequences and labels used below:
B1: scFv; the commonest letter at each place (parent)
chain 1: EVKLDETGGGLVQPGRPMKLSCVASGFTFSDYWMNWVRQSPEKGLEWVAQIRNKPYNYETYYSDSVKGRFTISRDDSKSSVYLQMNNLRVEDMGIYYCTGSYYGMDYWGQGTSVTVS
chain 2: DVVMTQTPLSLPVSLGDQASISCRSSQSLVHSNGNTYLRWYLQKPGQSPKVLIYKVSNRFSGVPDRFSGSGSGTDFTLKISRVEAEDLGVYFCSQSTHVPWTFGGGTKLEIK

In the series “fluorescein” the parent is B1. The series can be described thus: Kd (Tite-Seq). As to conditions: with fluorescein; format: scFv 4-4-20, heavy + light.
In series [1] the parent is B1. In words: yeast surface expression (ratio to wild type); higher = more expressed. As to conditions: format: scFv 4-4-20, heavy + light.

In the case of chain 1 V37R, the Kd – broadly, the equilibrium constant for the complex coming apart – with fluorescein was determined as 1.08 µM. In series [1], the yeast surface expression worked out at 0.716.
chain 1 V37T: in the series with fluorescein, the Kd was 0.00606 µM. Besides, the yeast surface expression in series [1] amounted to 0.626.
For chain 1 Y103F W108I the same measures were no more than 0.000316 µM and 0.885.
Regarding chain 1 Y32H, in the series with fluorescein, the Kd came to 0.0265 µM. Besides, the yeast surface expression in series [1] was found to be 1.03.
For chain 1 Y32M the same measures were 0.972 µM and 1.03.
As for chain 1 W36G V37N, the Kd with fluorescein is no less than 10 µM. Further, the yeast surface expression in series [1] was determined as 0.597.
Consider chain 1 S101W Y103A, for which the Kd in the series with fluorescein was no less than 10 µM. The yeast surface expression in series [1] worked out at 0.685.
The like results for chain 1 G100D W108R were, in that order, no less than 10 µM and 0.146.
Take chain 1 F29T: the Kd in the series with fluorescein is 0.00941 µM. Moreover, the yeast surface expression in series [1] was determined as 0.981.
For the variant chain 1 F29S, the Kd with fluorescein came to 0.0265 µM. Moreover, in series [1], the yeast surface expression was found to be 0.933.
The like results for chain 1 W108L were, in that order, no more than 0.000316 µM and 0.827.
With chain 1 W108T, the Kd in the series with fluorescein stood at 0.000399 µM. The yeast surface expression in series [1] stood at 0.775.
For chain 1 D31Q N35L, the Kd with fluorescein is no less than 10 µM. For the same variant, the yeast surface expression in series [1] turned out to be 0.418.
For chain 1 Y32S N35H the same measures were no less than 10 µM and 0.89.
The like results for chain 1 S101Y Y102P were, in that order, no less than 10 µM and 0.326.
Turning to chain 1 S101Y Y102G, the Kd in the series with fluorescein is no less than 10 µM. Besides, the yeast surface expression in series [1] worked out at 0.796.
Consider chain 1 D31T W33E, for which the Kd in the series with fluorescein is no less than 10 µM. Further, the yeast surface expression in series [1] came to 0.544.
For chain 1 G109S the same measures were 0.00361 µM and 0.826.
In the case of chain 1 D31C W33K, the Kd in the series with fluorescein came out at 3.74 µM. Further, in series [1], the yeast surface expression was found to be 0.675.
For chain 1 F29D V37D the same measures were no less than 10 µM and 0.557.
For chain 1 W33F the same measures were 0.0412 µM and 0.902.
As for chain 1 W33L, in the series with fluorescein, the Kd is no less than 10 µM. Besides, the yeast surface expression in series [1] turned out to be 0.824.
The like results for chain 1 G100I W108K were, in that order, no less than 10 µM and 0.698.
With chain 1 S101N Y107M, the Kd with fluorescein was no less than 10 µM. Besides, the yeast surface expression in series [1] amounted to 0.616.
The like results for chain 1 F29N W36H were, in that order, no less than 10 µM and 0.279.
The like results for chain 1 S101C G109D were, in that order, no less than 10 µM and 0.328.
For chain 1 M34A V37I the same measures were 0.495 µM and 0.837.
Take chain 1 M105C W108M: in the series with fluorescein, the Kd stood at 0.000389 µM. Besides, the yeast surface expression in series [1] was 0.656.
Take chain 1 Y103C D106L: in the series with fluorescein, the dissociation constant (Kd) was no less than 10 µM. The yeast surface expression in series [1] came out at 0.589.
The like results for chain 1 T28N N35T were, in that order, no less than 10 µM and 0.93.
For the variant chain 1 T28N N35V, the Kd with fluorescein was no less than 10 µM. Moreover, the yeast surface expression in series [1] stood at 0.666.
For chain 1 S101Q G104V the same measures were no less than 10 µM and 0.296.
For chain 1 D106G Y107S the same measures were no less than 10 µM and 0.474.
For chain 1 F29M D31I the same measures were no less than 10 µM and 0.518.
Regarding chain 1 F29M D31T, the Kd in the series with fluorescein amounted to 0.00746 µM. Further, the yeast surface expression in series [1] turned out to be 0.848.
The like results for chain 1 S30C W33Y were, in that order, no less than 10 µM and 1.04.
The like results for chain 1 S101I Y107K were, in that order, no less than 10 µM and 0.29.
chain 1 Y103N M105G Y107M: the dissociation constant Kd in the series with fluorescein was no less than 10 µM. The yeast surface expression in series [1] is 0.836.
chain 1 Y102S Y107R: in the series with fluorescein, the Kd is 0.00251 µM. For the same variant, in series [1], the yeast surface expression is 0.667.
As to chain 1 T28V M34S, the Kd in the series with fluorescein stood at 0.0353 µM. Also, the yeast surface expression in series [1] is 0.593.
Take chain 1 S101L Y102V: the Kd with fluorescein was no less than 10 µM. In addition, in series [1], the yeast surface expression was 0.401.
The like results for chain 1 S101H Y103Q were, in that order, no less than 10 µM and 0.871.
The like results for chain 1 Y103E G109I were, in that order, no less than 10 µM and 0.277.
For the variant chain 1 G104A M105T, in the series with fluorescein, the Kd was no less than 10 µM. In series [1], the yeast surface expression worked out at 0.685.
For chain 1 S30R V37M the same measures were no more than 0.000316 µM and 1.02.
For chain 1 S30K the same measures were 0.00122 µM and 1.12.
In the case of chain 1 D31S M34R, the dissociation constant (Kd) with fluorescein was no less than 10 µM. Moreover, in series [1], the yeast surface expression was 0.424.
With chain 1 Y107L W108D, the Kd with fluorescein is no less than 10 µM. Moreover, in series [1], the yeast surface expression stood at 0.326.
With chain 1 T28F M34A, the Kd with fluorescein amounted to 0.0189 µM. In series [1], the yeast surface expression was 0.566.
Regarding chain 1 Y102H D106G, in the series with fluorescein, the Kd was no less than 10 µM. The yeast surface expression in series [1] was determined as 0.856.
For the variant chain 1 G104F W108I, the Kd in the series with fluorescein is no less than 10 µM. The yeast surface expression in series [1] amounted to 0.146.
For chain 1 Y103F G104R W108Y the same measures were no less than 10 µM and 0.139.
With chain 1 G104R D106P Y107A, the Kd in the series with fluorescein is no less than 10 µM. For the same variant, the yeast surface expression in series [1] came to 0.359.
The like results for chain 1 S30Q D31H were, in that order, 0.00158 µM and 0.881.
For the variant chain 1 F29K D31K W33G, in the series with fluorescein, the Kd was no less than 10 µM. The yeast surface expression in series [1] was 0.92.
The like results for chain 1 D31E Y32M were, in that order, 8.13 µM and 0.789.
For chain 1 G100R S101I the same measures were no less than 10 µM and 0.352.
With chain 1 Y32G W36H, the Kd with fluorescein was no less than 10 µM. For the same variant, the yeast surface expression in series [1] stood at 0.209.

The values are drawn from the FLAb antibody collection (doi:10.7554/elife.23156).
